# In patent publication US20240270846A1 (published 2024):
# Target: T1, CD3 epsilon homodimer protein (UniProt P07766 23-126)
# T1 construct: also called CD3 (CD3 epsilon)
# Experiment: SPR Biacore T200, CD3 epsilon homodimer on chip, antibody as analyte;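 further: homodimer amine-coupled to a CM4 sensor chip, run at 25 °C in HBS-EP+ buffer, with kinetic parameters derived in Biacore T200 Evaluation Software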
# Protocol: An appropriate amount of CD3 epsilon homodimer protein was immobilized onto Sensor chip CM4 (GE Healthcare Japan Corp.) by the amine coupling method. Then, the antibody having an appropriate concentration was injected thereto as an analyte and allowed to interact with the CD3 epsilon homodimer protein on the sensor chip. Then, the sensor chip was regenerated by the injection of 10 mmol/L glycine-HCl (pH 1.5). The assay was conducted at 25 degrees C., and HBS-EP+(GE Healthcare Japan Corp.) was used as a running buffer. […] Each parameter was calculated using Biacore T200 Evaluation Software (GE Healthcare Japan Corp.).
# Specifically, when the amount of the antibody comprising CE115HA000 bound was defined as X and the amount of the H chain one-amino acid altered form bound was defined as Y, a value of Z (ratio of amounts bound)=Y/X was used.
# T1 sequence (P07766 23-126): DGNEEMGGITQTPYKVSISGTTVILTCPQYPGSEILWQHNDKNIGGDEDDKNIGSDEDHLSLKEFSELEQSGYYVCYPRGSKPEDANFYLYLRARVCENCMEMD
row,Binder,KD ratio (KD of CE115HA000 / KD of altered form)
1,"CE115HA000 H chain altered form N54D (antibody, human IgG1, kappa, L234A L235A, N297A, name in Kabat numbering, one-arm antibody) heavy: QVQLVESGGGVVQPGRSLRLSCAASGFTFSNAWMHWVRQAPGKGLEWVAQIKAKSNDYATYYAESVKGRFTISRDDSKNSLYLQMNSLKTEDTAVYYCRYVHYGAYYGVDAWGQGTTVTVSSASTKGPSVFPLAPSSKSTSGGTAALGCLVKDYFPEPVTVSWNSGALTSGVHTFPAVLQSSGLYSLSSVVTVPSSSLGTQTYICNVNHKPSNTKVDKKVEPKSCDKTHTCPPCPAPEAAGGPSVFLFPPKPKDTLMISRTPEVTCVVVDVSHEDPEVKFNWYVDGVEVHNAKTKPREEQYASTYRVVSVLTVLHQDWLNGKEYKCKVSNKALPAPIEKTISKAKGQPREPQVYTLPPSRCELTKNQVSLSCAVKGFYPSDIAVEWESNGQPENNYKTTPPVLDSDGSFFLVSKLTVDKSRWQQGNVFSCSVMHEALHNHYTQKSLSLSPDYKDDDDK EPKSSDKTHTCPPCPAPELLGGPSVFLFPPKPKDTLMISRTPEVTCVVVDVSHEDPEVKFNWYVDGVEVHNAKTKPREEQYNSTYRVVSVLTVLHQDWLNGKEYKCKVSNKALPAPIEKTISKAKGQPREPQVCTLPPSRDELTKNQVSLWCLVKGFYPSDIAVEWESNGQPENNYKTTPPVLDSDGSFFLYSKLTVDKSRWQQGNVFSCSVMHEALHNRYTQKSLSLSP light: DIVMTQSPLSLPVTPGEPASISCRSSQSLVHSNRNTYLHWYQQKPGQAPRLLIYKVSNRFSGVPDRFSGSGSGTDFTLKISRVEAEDVGVYYCGQGTQVPYTFGQGTKLEIKRTVAAPSVFIFPPSDEQLKSGTASVVCLLNNFYPREAKVQWKVDNALQSGNSQESVTEQDSKDSTYSLSSTLTLSKADYEKHKVYACEVTHQGLSSPVTKSFNRGEC",0.59
2,"CE115HA000 H chain altered form N54K (antibody, human IgG1, kappa, L234A L235A, N297A, name in Kabat numbering, one-arm antibody) heavy: QVQLVESGGGVVQPGRSLRLSCAASGFTFSNAWMHWVRQAPGKGLEWVAQIKAKSNKYATYYAESVKGRFTISRDDSKNSLYLQMNSLKTEDTAVYYCRYVHYGAYYGVDAWGQGTTVTVSSASTKGPSVFPLAPSSKSTSGGTAALGCLVKDYFPEPVTVSWNSGALTSGVHTFPAVLQSSGLYSLSSVVTVPSSSLGTQTYICNVNHKPSNTKVDKKVEPKSCDKTHTCPPCPAPEAAGGPSVFLFPPKPKDTLMISRTPEVTCVVVDVSHEDPEVKFNWYVDGVEVHNAKTKPREEQYASTYRVVSVLTVLHQDWLNGKEYKCKVSNKALPAPIEKTISKAKGQPREPQVYTLPPSRCELTKNQVSLSCAVKGFYPSDIAVEWESNGQPENNYKTTPPVLDSDGSFFLVSKLTVDKSRWQQGNVFSCSVMHEALHNHYTQKSLSLSPDYKDDDDK EPKSSDKTHTCPPCPAPELLGGPSVFLFPPKPKDTLMISRTPEVTCVVVDVSHEDPEVKFNWYVDGVEVHNAKTKPREEQYNSTYRVVSVLTVLHQDWLNGKEYKCKVSNKALPAPIEKTISKAKGQPREPQVCTLPPSRDELTKNQVSLWCLVKGFYPSDIAVEWESNGQPENNYKTTPPVLDSDGSFFLYSKLTVDKSRWQQGNVFSCSVMHEALHNRYTQKSLSLSP light: DIVMTQSPLSLPVTPGEPASISCRSSQSLVHSNRNTYLHWYQQKPGQAPRLLIYKVSNRFSGVPDRFSGSGSGTDFTLKISRVEAEDVGVYYCGQGTQVPYTFGQGTKLEIKRTVAAPSVFIFPPSDEQLKSGTASVVCLLNNFYPREAKVQWKVDNALQSGNSQESVTEQDSKDSTYSLSSTLTLSKADYEKHKVYACEVTHQGLSSPVTKSFNRGEC",0.82
3,"CE115HA000 H chain altered form N54G (antibody, human IgG1, kappa, L234A L235A, N297A, name in Kabat numbering, one-arm antibody) heavy: QVQLVESGGGVVQPGRSLRLSCAASGFTFSNAWMHWVRQAPGKGLEWVAQIKAKSNGYATYYAESVKGRFTISRDDSKNSLYLQMNSLKTEDTAVYYCRYVHYGAYYGVDAWGQGTTVTVSSASTKGPSVFPLAPSSKSTSGGTAALGCLVKDYFPEPVTVSWNSGALTSGVHTFPAVLQSSGLYSLSSVVTVPSSSLGTQTYICNVNHKPSNTKVDKKVEPKSCDKTHTCPPCPAPEAAGGPSVFLFPPKPKDTLMISRTPEVTCVVVDVSHEDPEVKFNWYVDGVEVHNAKTKPREEQYASTYRVVSVLTVLHQDWLNGKEYKCKVSNKALPAPIEKTISKAKGQPREPQVYTLPPSRCELTKNQVSLSCAVKGFYPSDIAVEWESNGQPENNYKTTPPVLDSDGSFFLVSKLTVDKSRWQQGNVFSCSVMHEALHNHYTQKSLSLSPDYKDDDDK EPKSSDKTHTCPPCPAPELLGGPSVFLFPPKPKDTLMISRTPEVTCVVVDVSHEDPEVKFNWYVDGVEVHNAKTKPREEQYNSTYRVVSVLTVLHQDWLNGKEYKCKVSNKALPAPIEKTISKAKGQPREPQVCTLPPSRDELTKNQVSLWCLVKGFYPSDIAVEWESNGQPENNYKTTPPVLDSDGSFFLYSKLTVDKSRWQQGNVFSCSVMHEALHNRYTQKSLSLSP light: DIVMTQSPLSLPVTPGEPASISCRSSQSLVHSNRNTYLHWYQQKPGQAPRLLIYKVSNRFSGVPDRFSGSGSGTDFTLKISRVEAEDVGVYYCGQGTQVPYTFGQGTKLEIKRTVAAPSVFIFPPSDEQLKSGTASVVCLLNNFYPREAKVQWKVDNALQSGNSQESVTEQDSKDSTYSLSSTLTLSKADYEKHKVYACEVTHQGLSSPVTKSFNRGEC",0.84
4,"CE115HA000 H chain altered form N54F (antibody, human IgG1, kappa, L234A L235A, N297A, name in Kabat numbering, one-arm antibody) heavy: QVQLVESGGGVVQPGRSLRLSCAASGFTFSNAWMHWVRQAPGKGLEWVAQIKAKSNFYATYYAESVKGRFTISRDDSKNSLYLQMNSLKTEDTAVYYCRYVHYGAYYGVDAWGQGTTVTVSSASTKGPSVFPLAPSSKSTSGGTAALGCLVKDYFPEPVTVSWNSGALTSGVHTFPAVLQSSGLYSLSSVVTVPSSSLGTQTYICNVNHKPSNTKVDKKVEPKSCDKTHTCPPCPAPEAAGGPSVFLFPPKPKDTLMISRTPEVTCVVVDVSHEDPEVKFNWYVDGVEVHNAKTKPREEQYASTYRVVSVLTVLHQDWLNGKEYKCKVSNKALPAPIEKTISKAKGQPREPQVYTLPPSRCELTKNQVSLSCAVKGFYPSDIAVEWESNGQPENNYKTTPPVLDSDGSFFLVSKLTVDKSRWQQGNVFSCSVMHEALHNHYTQKSLSLSPDYKDDDDK EPKSSDKTHTCPPCPAPELLGGPSVFLFPPKPKDTLMISRTPEVTCVVVDVSHEDPEVKFNWYVDGVEVHNAKTKPREEQYNSTYRVVSVLTVLHQDWLNGKEYKCKVSNKALPAPIEKTISKAKGQPREPQVCTLPPSRDELTKNQVSLWCLVKGFYPSDIAVEWESNGQPENNYKTTPPVLDSDGSFFLYSKLTVDKSRWQQGNVFSCSVMHEALHNRYTQKSLSLSP light: DIVMTQSPLSLPVTPGEPASISCRSSQSLVHSNRNTYLHWYQQKPGQAPRLLIYKVSNRFSGVPDRFSGSGSGTDFTLKISRVEAEDVGVYYCGQGTQVPYTFGQGTKLEIKRTVAAPSVFIFPPSDEQLKSGTASVVCLLNNFYPREAKVQWKVDNALQSGNSQESVTEQDSKDSTYSLSSTLTLSKADYEKHKVYACEVTHQGLSSPVTKSFNRGEC",0.97

# Further lines, results first:
row,KD ratio (KD of CE115HA000 / KD of altered form),Binder
1,0.91,"CE115HA000 H chain altered form N54L (antibody, human IgG1, kappa, L234A L235A, N297A, name in Kabat numbering, one-arm antibody) heavy: QVQLVESGGGVVQPGRSLRLSCAASGFTFSNAWMHWVRQAPGKGLEWVAQIKAKSNLYATYYAESVKGRFTISRDDSKNSLYLQMNSLKTEDTAVYYCRYVHYGAYYGVDAWGQGTTVTVSSASTKGPSVFPLAPSSKSTSGGTAALGCLVKDYFPEPVTVSWNSGALTSGVHTFPAVLQSSGLYSLSSVVTVPSSSLGTQTYICNVNHKPSNTKVDKKVEPKSCDKTHTCPPCPAPEAAGGPSVFLFPPKPKDTLMISRTPEVTCVVVDVSHEDPEVKFNWYVDGVEVHNAKTKPREEQYASTYRVVSVLTVLHQDWLNGKEYKCKVSNKALPAPIEKTISKAKGQPREPQVYTLPPSRCELTKNQVSLSCAVKGFYPSDIAVEWESNGQPENNYKTTPPVLDSDGSFFLVSKLTVDKSRWQQGNVFSCSVMHEALHNHYTQKSLSLSPDYKDDDDK EPKSSDKTHTCPPCPAPELLGGPSVFLFPPKPKDTLMISRTPEVTCVVVDVSHEDPEVKFNWYVDGVEVHNAKTKPREEQYNSTYRVVSVLTVLHQDWLNGKEYKCKVSNKALPAPIEKTISKAKGQPREPQVCTLPPSRDELTKNQVSLWCLVKGFYPSDIAVEWESNGQPENNYKTTPPVLDSDGSFFLYSKLTVDKSRWQQGNVFSCSVMHEALHNRYTQKSLSLSP light: DIVMTQSPLSLPVTPGEPASISCRSSQSLVHSNRNTYLHWYQQKPGQAPRLLIYKVSNRFSGVPDRFSGSGSGTDFTLKISRVEAEDVGVYYCGQGTQVPYTFGQGTKLEIKRTVAAPSVFIFPPSDEQLKSGTASVVCLLNNFYPREAKVQWKVDNALQSGNSQESVTEQDSKDSTYSLSSTLTLSKADYEKHKVYACEVTHQGLSSPVTKSFNRGEC"
2,0.8,"CE115HA000 H chain altered form N54Q (antibody, human IgG1, kappa, L234A L235A, N297A, name in Kabat numbering, one-arm antibody) heavy: QVQLVESGGGVVQPGRSLRLSCAASGFTFSNAWMHWVRQAPGKGLEWVAQIKAKSNQYATYYAESVKGRFTISRDDSKNSLYLQMNSLKTEDTAVYYCRYVHYGAYYGVDAWGQGTTVTVSSASTKGPSVFPLAPSSKSTSGGTAALGCLVKDYFPEPVTVSWNSGALTSGVHTFPAVLQSSGLYSLSSVVTVPSSSLGTQTYICNVNHKPSNTKVDKKVEPKSCDKTHTCPPCPAPEAAGGPSVFLFPPKPKDTLMISRTPEVTCVVVDVSHEDPEVKFNWYVDGVEVHNAKTKPREEQYASTYRVVSVLTVLHQDWLNGKEYKCKVSNKALPAPIEKTISKAKGQPREPQVYTLPPSRCELTKNQVSLSCAVKGFYPSDIAVEWESNGQPENNYKTTPPVLDSDGSFFLVSKLTVDKSRWQQGNVFSCSVMHEALHNHYTQKSLSLSPDYKDDDDK EPKSSDKTHTCPPCPAPELLGGPSVFLFPPKPKDTLMISRTPEVTCVVVDVSHEDPEVKFNWYVDGVEVHNAKTKPREEQYNSTYRVVSVLTVLHQDWLNGKEYKCKVSNKALPAPIEKTISKAKGQPREPQVCTLPPSRDELTKNQVSLWCLVKGFYPSDIAVEWESNGQPENNYKTTPPVLDSDGSFFLYSKLTVDKSRWQQGNVFSCSVMHEALHNRYTQKSLSLSP light: DIVMTQSPLSLPVTPGEPASISCRSSQSLVHSNRNTYLHWYQQKPGQAPRLLIYKVSNRFSGVPDRFSGSGSGTDFTLKISRVEAEDVGVYYCGQGTQVPYTFGQGTKLEIKRTVAAPSVFIFPPSDEQLKSGTASVVCLLNNFYPREAKVQWKVDNALQSGNSQESVTEQDSKDSTYSLSSTLTLSKADYEKHKVYACEVTHQGLSSPVTKSFNRGEC"
